Numbering of substitutions follows the chain as printed. Read-outs that look alike come from different tables or passages of the source.
T1: Cynomolgus CD3 epsilon Protein, His Tag (Acrobiosystems, Cat #CDE-05226) (cynomolgus (Macaca fascicularis), UniProt Q95LI5 22-117)
T1 construct: also called monkey CD3e; not shown: His tag
T1 sequence: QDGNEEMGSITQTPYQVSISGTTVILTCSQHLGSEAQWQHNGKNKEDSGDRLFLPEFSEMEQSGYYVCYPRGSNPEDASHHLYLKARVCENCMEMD

B1: 10A4-H2K2-IgG1-LALA (antibody, V domains shown)
VH: QVQLVQSGAEVKKPGASVKISCKASGYTFTSYYIHWVRQAPGQRLEFIGWIYPGNVNAKYNEKFKGRATITTDKSASTAYMELSSLRSEDTAVYYCAIKGGNYDWGQGTLVTVSS
VL: DVVMTQSPLSLPVTLGQPASISCQSSQSLLDSDGKTYLNWLQQRPGQSPRRLIYLVSKLGSGVPDRFSGSGSGTDFTLKISRVEAEDVGVYYCWQGTHFPRTFGGGTKLEIK
notes: Humanized; human IgG1 with LALA mutations; also called H2K2 (humanized 10A4)
B2: 10A4-H3K3-IgG1-LALA (antibody, V domains shown)
VH: B1 VH with A40R, I70L, Y95F
VL: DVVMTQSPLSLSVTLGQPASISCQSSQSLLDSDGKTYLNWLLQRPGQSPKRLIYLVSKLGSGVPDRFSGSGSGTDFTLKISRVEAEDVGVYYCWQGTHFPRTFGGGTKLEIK
notes: Humanized; human IgG1 with LALA mutations; also called H3K3 (humanized 10A4)
B3: 10A4-H3K2-IgG1-LALA (antibody, V domains shown)
VH: B1 VH with A40R, I70L, Y95F
VL: B1 VL
notes: Humanized; human IgG1 with LALA mutations; also called H3K2 (humanized 10A4)
B4: 10A4-H3K1-IgG1-LALA (antibody, V domains shown)
VH: B1 VH with A40R, I70L, Y95F
VL: B1 VL with L109V
notes: Humanized; human IgG1 with LALA mutations; also called H3K1 (humanized 10A4)
B5: 10A4-H4K1-IgG1-LALA (antibody, V domains shown)
VH: B1 VH with V5Q, K19R, A40R, R44G, I70L, Y95F
VL: B1 VL with L109V
notes: Humanized; human IgG1 with LALA mutations; also called H4K1 (humanized 10A4)
B6: 1B1-H3K3-IgG1-LALA (antibody, V domains shown)
VH: QVQLVQSGAEVKKPGASVKLSCKASGYTFTSYWMHWVRQRHGQGLEWIGNIYPDSGTTNYGEKFKTRVTLTVDTSTSTAYMELSSLRSEDTAVYYCTRDTSGQYYFDYWGQGTLVTVSS
VL: DIVMTQSPDSLAVSAGERVTMNCKSSQSLLNSRTRKNYLAWYQHKPGQSPKLLIYWASTRESGVPDRFSGSGSGTDFTLTISSVQAEDVAVYYCVQSFSLRAFGGGTKLEIK
notes: Humanized; human IgG1 with LALA mutations; also called H3K3 (humanized 1B1)

How the values were obtained:
[1] = target: T2, Histidine-tagged human CD3e protein (human, UniProt P07766 23-126); experiment: SPR (Biacore), human CD3e
T2 construct: also called hCD3e-His; not shown: His tag

[2] = target: T3, monkey CD3e (Macaca fascicularis) on PBMC (Macaca fascicularis, UniProt Q95LI5 22-198); experiment: flow cytometry, Macaca fascicularis PBMC, antibody concentration not given, anti-human IgG Fc-Alexa Fluor647 (1:500), anti-hTcRβ-PerCP (1:30)
T3 construct: Target on PBMC from Macaca fascicularis; also called mfCD3e; monkey PBMC
Protocol: A 96-well plate was prepared. 25 ul of cell suspension was added to each well. Anti-hCD3 antibodies were added to the 96-well plate. The cells and the antibodies were incubated for 15 minutes at 4° C. 185 ul PBS was then added to each well. After centrifuge at 2000 rpm for 5 minutes, the medium was discarded. The samples were washed again. 25 ul of PBS was then added to resuspend cells.
Anti-human IgG Fc-Alexa Fluror647 (1:500) and anti-hTcRβ PerCP (1:30) were then added to each well. The cells and the antibodies were incubated for 15 minutes at 4° C. 185 ul PBS was then added to each well. After centrifuge, the residues were discarded. The samples were washed again. 25 ul of PBS was then added to resuspend cells. […] In contrast, anti-hTcRβ PerCP cannot bind to monkey PBMC.

[3] = target: T4, human CD3e (T-cell surface glycoprotein CD3 epsilon chain) (human, UniProt P07766 23-207); experiment: flow cytometry, human PBMC, antibody 0.01 ug/mL, anti-human IgG Fc-Alexa Fluor647 (1:500), anti-hTcRβ-PerCP (1:30)
T4 construct: Target of the anti-hCD3e antibodies on human PBMC, Jurkat cells and cells expressing human CD3e; on T cells it is part of the CD3/TCR complex; also called hCD3e; CD3e on human PBMC
Protocol: (§1) PBMC cells were collected from a human subject. After being thawed, the cells were cultured for 3-4 hours. The medium was then discarded, and the cells were resuspended in phosphate-buffered saline (PBS). The cell concentration was then adjusted to 2×10⁶/25 μl PBS.
(§2) A 96-well plate was prepared. 25 ul of cell suspension was added to each well. […] The cells and the antibodies were incubated. After centrifuge, the residues were discarded. The samples were washed again. 25 ul of PBS was then added to each well to resuspend cells.
(§3) Anti-human IgG Fc-Alexa Fluror647 (1:500) and anit-hTcRβ PerCP (1:30) were then added to each well. The cells and the antibodies were incubated and then the cells were washed again by PBS. 300 ul of PBS was then added to each well to resuspend the cells. FACS was performed.

[4] = target: T1, Cynomolgus CD3 epsilon Protein, His Tag …; experiment: SPR (Biacore), cynomolgus CD3e His tag
Protocol: The binding affinity of the anti-hCD3e antibodies with monkey CD3e (Cynomolgus CD3 epsilon Protein (SEQ ID NO: 39 AA Gln 22-Asp 117), His Tag, Acrobiosystems, Cat #CDE-05226) were also measured using surface plasmon resonance (SPR) using Biacore (Biacore, INC, Piscataway N.J.) by the methods as described in the examples.

[5] = target: T4, human CD3e (T-cell surface glycoprotein …); experiment: flow cytometry, human PBMC, antibody 0.1 ug/mL, anti-human IgG Fc-Alexa Fluor647 (1:500), anti-hTcRβ-PerCP (1:30)
Protocol: as §1, §2, §3

[6] = target: T4, human CD3e (T-cell surface glycoprotein …); experiment: cell-based or functional assay
[7] = target: T4, human CD3e (T-cell surface glycoprotein …); experiment: flow cytometry, human PBMC, antibody 1 ug/mL, anti-human IgG Fc-Alexa Fluor647 (1:500), anti-hTcRβ-PerCP (1:30)
Protocol: as §1, §2, §3

[8] = target: T4, human CD3e (T-cell surface glycoprotein …); experiment: flow cytometry, human PBMC, antibody 10 µg/mL, anti-human IgG Fc-Alexa Fluor647 (1:500), anti-hTcRβ-PerCP (1:30)
Protocol: as §1
A 96-well plate was prepared. 25 ul of cell suspension was added to each well. Anti-hCD3e antibodies with different combinations of humanized 1B1 heavy chain variants and humanized 1B1 light chain variants were diluted to 20 ug/ml (2×) in PBS, and were added to the 96-well plate. The cells and the antibodies were incubated. After centrifuge, the residues were discarded. The samples were washed again. 25 ul of PBS was then added to each well to resuspend cells.
as §3

[9] = target: T4, human CD3e (T-cell surface glycoprotein …); experiment: flow cytometry, human PBMC, antibody 1 µg/mL, anti-human IgG Fc-Alexa Fluor647 (1:500), anti-hTcRβ-PerCP (1:30)
Protocol: as §1, §2, §3

[10] = target: T4, human CD3e (T-cell surface glycoprotein …); experiment: flow cytometry, human PBMC, antibody 0.1 µg/mL, anti-human IgG Fc-Alexa Fluor647 (1:500), anti-hTcRβ-PerCP (1:30)
Protocol: as §1, §2, §3

[11] = target: T2, Histidine-tagged human CD3e protein; experiment: SPR (Biacore), human CD3e; remark: listed apart in the source

Binder	Kd [1] [nM]	koff [1] [s⁻¹]	kon [1] [M⁻¹ s⁻¹]	upper left quadrant, percent of cells AF647+ / hTcRβ-PerCP- [2] [%]	upper right quadrant, percent of cells AF647+ / hTcRβ-PerCP+ [2] [%]	upper left quadrant, percent of cells AF647+ / hTcRβ-PerCP- [3] [%]	upper right quadrant, percent of cells AF647+ / hTcRβ-PerCP+ [3] [%]	upper left quadrant, percent of cells AF647+ / hTcRβ-PerCP- [5] [%]	upper right quadrant, percent of cells AF647+ / hTcRβ-PerCP+ [5] [%]	EC50, luciferase of Jurkat-Luc-NFAT cells; antibody from supernatant [6] [µg/mL]	upper left quadrant, percent of cells AF647+ / hTcRβ-PerCP- [7] [%]	upper right quadrant, percent of cells AF647+ / hTcRβ-PerCP+ [7] [%]	also measured
B1	1.96	0.000134	68400	44.2	3.1	2.42	11.6	8.05	53.3	0.247	–	–	Kd [4]: 8.21 nM; koff [4]: 0.000411 s⁻¹; kon [4]: 50100 M⁻¹ s⁻¹; EC50, luciferase of Jurkat-Luc-NFAT cells; purified antibody [6]: 0.263 µg/mL
B2	1.73	0.000107	62100	46	2.58	2.66	14	9.79	54.8	0.475	14.3	74.7	–
B3	2.02	0.000126	62100	45.1	1.69	2.75	15.2	12.2	61.3	0.205	12.4	75.8	–
B4	2.12	0.00014	65900	52	2.39	2.62	12.9	10.7	55.6	0.198	14.5	75	–
B5	1.31	8.91e-05	68100	68.5	3.45	2.56	12	9.91	51.2	0.234	12.4	76.8	–
B6	–	–	–	86.8	9.46	–	–	–	–	–	–	–	upper left quadrant, percent of cells AF647+ / hTcRβ-PerCP- [8]: 9.61%; upper right quadrant, percent of cells AF647+ / hTcRβ-PerCP+ [8]: 63.7%; upper left quadrant, percent of cells AF647+ / hTcRβ-PerCP- [9]: 11.6%; upper right quadrant, percent of cells AF647+ / hTcRβ-PerCP+ [9]: 58.1%; upper left quadrant, percent of cells AF647+ / hTcRβ-PerCP- [10]: 11.8%; upper right quadrant, percent of cells AF647+ / hTcRβ-PerCP+ [10]: 54.5%; Kd [11]: 0.718 nM; koff [11]: 0.000501 s⁻¹; kon [11]: 698000 M⁻¹ s⁻¹

From patent publication US20210269525A1 (BIOCYTOGEN PHARMACEUTICALS BEIJING, published 2021)
